Consider one molecule from patent publication US10206896B2, “Method of treating delayed healing of a wound associated with diabetes” (KUWAIT UNIVERSITY, priority 2014, dated 2019).

Assay [1] has as its system control fibroblasts (CFs). Put plainly: BrdU incorporation into DNA (cell proliferation) in control fibroblasts. As to conditions: 24-hr serum starved CFs, vs starved cells; dose providing the maximum response (IGF 50 ng, PDGF 1 nM, EGF 100 ng). The class given is cell-based, Wistar rat. The method, then: (§1) Cell culture and HP treatment. […] Assessment of key fibroblast functions essential for wound healing. To assess cell proliferation, fibroblasts were seeded into a 96-well plate at a density of 1×10^4 per well and were allowed to adhere overnight in DMEM medium supplemented with 10% FCS. After arrest by incubation in serum-free medium for 24 hours, the cells were exposed to growth factors, and the incorporation of bromodeoxyuridine (BrdU) into DNA was determined using the manufacturer's protocol (Roche Diagnostics). Similarly, for the in vitro wound (migration) experiments, cultured fibroblasts were grown in six-well plates until they reached confluence. The medium was removed, the cells were washed with PBS 3× before culturing was continued in serum-free DMEM containing 0.5% BSA for an additional 24 hours. […] The rate of wound healing was quantified as described in the literature […] Caveolin-1 protein expression and PDGF-induced phosphorylation of Akt (20 min) and ERK (10 min) in 24-hr serum starved fibroblasts were determined using a Western-blotting-based technique. A proliferation index encompassing BrdU incorporation into DNA and cell cycle progression was evaluated in response to various growth factors (e.g., IGF, 50 ng; PDGF, 1 nM; EGF, 100 ng) in 24-hr serum starved fibroblast. […]
A general note: Uptake of a labelled nucleoside into DNA is a usual measure of proliferation.

The test system of assay [2] is control fibroblasts (CFs). The assay is described as follows: In vitro scratch wound (cell migration) in control fibroblasts. The class given is cell-based, Wistar rat. The conditions noted are these: 24 hrs post-injury. The method, then:
as §1

B1: EGF: mitotic growth factor (protein, UniProt P01133 23-1207, looked up)
Pro-epidermal growth factor: PQHWSCPEGTLAGNGNSTCVGPAPFLIFSHGNSIFRIDTEGTNYEQLVVDAGVSVIMDFHYNEKRIYWVDLERQLLQRVFLNGSRQERVCNIEKNVSGMAINWINEEVIWSNQQEGIITVTDMKGNNSHILLSALKYPANVAVDPVERFIFWSSEVAGSLYRADLDGVGVKALLETSEKITAVSLDVLDKRLFWIQYNREGSNSLICSCDYDGGSVHISKHPTQHNLFAMSLFGDRIFYSTWKMKTIWIANKHTGKDMVRINLHSSFVPLGELKVVHPLAQPKAEDDTWEPEQKLCKLRKGNCSSTVCGQDLQSHLCMCAEGYALSRDRKYCEDVNECAFWNHGCTLGCKNTPGSYYCTCPVGFVLLPDGKRCHQLVSCPRNVSECSHDCVLTSEGPLCFCPEGSVLERDGKTCSGCSSPDNGGCSQLCVPLSPVSWECDCFPGYDLQLDEKSCAASGPQPFLLFANSQDIRHMHFDGTDYGTLLSQQMGMVYALDHDPVENKIYFAHTALKWIERANMDGSQRERLIEEGVDVPEGLAVDWIGRRFYWTDRGKSLIGRSDLNGKRSKIITKENISQPRGIAVHPMAKRLFWTDTGINPRIESSSLQGLGRLVIASSDLIWPSGITIDFLTDKLYWCDAKQSVIEMANLDGSKRRRLTQNDVGHPFAVAVFEDYVWFSDWAMPSVMRVNKRTGKDRVRLQGSMLKPSSLVVVHPLAKPGADPCLYQNGGCEHICKKRLGTAWCSCREGFMKASDGKTCLALDGHQLLAGGEVDLKNQVTPLDILSKTRVSEDNITESQHMLVAEIMVSDQDDCAPVGCSMYARCISEGEDATCQCLKGFAGDGKLCSDIDECEMGVPVCPPASSKCINTEGGYVCRCSEGYQGDGIHCLDIDECQLGEHSCGENASCTNTEGGYTCMCAGRLSEPGLICPDSTPPPHLREDDHHYSVRNSDSECPLSHDGYCLHDGVCMYIEALDKYACNCVVGYIGERCQYRDLKWWELRHAGHGQQQKVIVVAVCVVVLVMLLLLSLWGAHYYRTQKLLSKNPKNPYEESSRDVRSRRPADTEDGMSSCPQPWFVVIKEHQDLKNGGQPVAGEDGQAADGSMQPTSWRQEPQLCGMGTEQGCWIPVSSDKGSCPQVMERSFHMPSYGTQTLEGGVEKPHSLLSANPLWQQRALDPPHQMELTQ
modifications: Pro-epidermal growth factor
Regarding B1, the “increase of proliferation rate (BrdU incorporation)” value in assay [1] is reported as roughly 7.1 fold. In assay [2], the “number of cells that migrated into the cell-free wound zone” value is on record as “markedly increased”.
